# B1: human scFv CD3 clone 18 (scFv, V domains shown)
# VH: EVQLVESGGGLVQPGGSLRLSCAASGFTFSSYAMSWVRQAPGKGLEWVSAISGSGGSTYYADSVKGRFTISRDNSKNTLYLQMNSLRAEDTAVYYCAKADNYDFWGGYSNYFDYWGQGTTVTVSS
# VL: EIVMTQSPATLSVSPGERATLSCTASQSVRNNLAWYQQKPGQPPRLLIYGASTRATGIPARFSGSRSGTEFTLTISSLQSEDFGVYYCQQYNNWPRTFGQGTKVEIK
# notes: selected from a naive human scFv M13 phage library; About 28 kDa on Western blot; source: E. coli HB2151, IPTG-induced; total cell lysate, periplasmic fraction or cytoplasmic fraction
# Biological target: T1, recombinant CD3 epsilon (Homo sapiens (species ; human …, UniProt P07766)
# T1 construct: recombinant CD3 epsilon (Sigma-Aldrich); No catalogue number is printed; source: bought: Sigma-Aldrich
# T1 sequence (P07766 23-126): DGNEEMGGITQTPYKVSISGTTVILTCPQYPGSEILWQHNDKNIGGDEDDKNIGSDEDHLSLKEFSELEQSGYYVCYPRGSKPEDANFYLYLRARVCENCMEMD
# Test: ELISA; indirect ELISA; 0.5 µg recombinant CD3 epsilon coated overnight at 4 °C; 500 µg/ml protein of total cell lysate, periplasmic or cytoplasmic fraction with the scFv, 37 °C 1 h; detected with HRP-conjugated anti-E tag, A405; signals of the negative protein and of BSA-coated wells subtracted
# Conditions: one partner purified
binder,measurement,value
B1,binding result,binds

# From PMC12148185, “Combining CD3/GD2 bispecific T cell engager with human Vγ9Vδ2 T cells facilitates neuroblastoma cell targeting and killing in vitro” (PLOS One, 2025)
